The target of this experiment is Anti-CRP antibodies (polyclonal). The experiment can be described thus: SPR (Spreeta chip), anti-CRP antibodies injected over OM layer with Z-domain on gold.

In patent US9482663 one finds SPR signal data, which are given here for 1 substance.

For “Z-domain of protein A autodisplayed on the E. coli outer membrane as a fusion protein of AIDA-I (from UniProt P38507 212-269; Q03155 840-1286)”, the SPR signal stood at 1.1 A.U.
